Experiment: yeast display, Sf9 membrane polyspecificity reagent, FACS + sequencing; frameworks hold sequencing errors
Summary of the method: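 Galactose induction of a Saccharomyces cerevisiae BJ5465 synthetic nanobody display library ran 36–48 hours. The cells were then stained for 1 hour at 4 °C with 10% biotinylated, detergent-solubilized Sf9 membrane reagent, pulled down on streptavidin microbeads and FACS-sorted into low and high (top ~1%) gates on expression and reagent-binding fluorescence. Labels for polyreactivity follow the gate of origin.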

Row | Sequence | polyreactivity (PSR sort gate)
1 | QVQLVESGGGLVQAGGSLRLSCAASGFTFRYNAMGWYRQAPGKERELVAGISWTSGSTYYADSVKGRFTISRDNAKNTVYLQMNSLKPEDTAVYYCAAYYRRDAALYGYWGQGTQVTVSS | high polyreactivity
2 | QVQLVESGGGLVQAGGSLRLSCAASGFISAYYAMGWYRQAPGKEMELVAAISWNGGRTFYADSVKGRFTISRDNAKNTVYLQMNSLKPEDTAVYYCAARYNGYANPYYYWGQGTQVTVSS | high polyreactivity
3 | QVLLQESGGGLVQAGGSLRLGCAASGTISHAYYMGRYHQAPGKEREFVAAITYGTNTYYADSVKGRFTISRDNAKNTVYLQMNSLKPEDTAVYYCSATAGYNGAHDYWGQGTQVTVSS | low polyreactivity
4 | QVQLVDSGGGLVQAGGSLRLSCAASGRTYFWNAMGWYRQAPGKERELVAAITWSGGSTYYADSVKGRFTISRDNAKNTVYLQMNSLKPEDTAVYYCAAVVSDYVWRYEYWGQGTQVTVSS | low polyreactivity
5 | QVQLVESGGGLVQAGGSLRLSCAASGIIFQGYVMGWYRQAPGKERELVAVISRTRGSTYYADSVKGRFTISRDNAKNTVYLQMNSLKPEDTAVYYCAAGTPRLRYLQGHRMNYWGQGTQVTVSS | high polyreactivity
6 | QVQLVESGGGLVQAGGSLRLSCAASGSIFNSYAMGWYRQAPGKERELVAAISSGGGRTYYADSVKGRFTISRDNAKNTVYLQMNSLKPEDTAVYYCNARAVYRFDYWGQGTQVTVSS | high polyreactivity
7 | QVQLVESGGGLVQAGGSLRLRCAASRRTLGVYALGWYRQAPGKERELVATITAGGSITSYADSVKGRFTISRDNAKNTVYLQMNTLKPEDTAVYYCAAEQGCSVLYDSWGQGTQVTVSS | low polyreactivity
8 | QVHLVESGGGLVQAGGSLRLSCAASGITFKWNDMGWYRQAPGKEREFVAAITGSTGSTFYADSVKGRFTISRDNAKNTVYLQMNSLKPEDTAVYFCAAGPWFYYWRQGTQVTVSS | low polyreactivity
9 | QVQLVESGGGLVQAGGSLRLSCAASGSTFVYSAMGWYRQAPGKERELVAAIRNGDGTNYADSVKGRFTISRDNAMNTVYLQMNSLKPEDTAVYYCAAPQGEYFYVYEFDYWGQGTQVTVSS | low polyreactivity
10 | QVQLVESGGGVVQAGGSLRLSCAASGSPFGFYTMGGYRQAPGKERELVAAISWSTGRTYYADSVKGRFTISRDKAKNTVDLQMNSLKPEDTAVYYCAADYYWKLFHEPPAVYDYDYWGQGTQVTVSS | low polyreactivity
11 | QVQLVESGGGLVQAGGSLRLSCAASGSTFKYNAMGWYRQAPGKERELVASISRSGGSTYYADSVKGRFTISRDNAKNTVYLQMNSLKPEDTAVYYCNVRRFVHYEYWGQGTQVTVSS | high polyreactivity
12 | QVQLVESGGGLVQAGGSLRLSCAASGSIFPKNAMGWYRQAPGKERELVAGITSRTGRTYYADSVKGRFTISRDKAKNTVYLQMNSLKPEDTAVYYCAARIGGGPVKYDYWGQGTQVTVSS | high polyreactivity
13 | QVQLVESGGGLVQAGGSLRLSCAASGNIFSYYAMGWYRQAPGKERELVAAIRSSGVGTRYADSVKGRFTISRDNAKNTVYLQINSLKPEDTAVYYCAATGYTGYSRYYYWGQGTQVTVSS | high polyreactivity
14 | QVQLVESGGGLVQAGGSLRLSCAASGSTFGVYAMGWSRQAPGKERELDAAIRWSDGTTYYADSVKGRFTNSRDNAKNPVYLQMNSLKPEDTAVYYCAAVGYKRGTGRYGYWGQGTQVTVSS | high polyreactivity
15 | QVQLVESGGGLVQAGGSLRLSCAASGITFVYYDMGWYRQAPGKERELLAAISSGGSTYYADSVKGRFTISRDNAKNTVYLQMNSLKPEDTAVYYCAAKISSNYHIGGDDYWGQGTQVSVSS | high polyreactivity
16 | QVQLVESGGGLVQAGGSLRLSCAASGFTFLSYTMGWYRQAPGKERELVASITASGTRTYYADSVKGRFTISRDNAKNTVYLQMNSLKPEDTAVYYCNRVGFDYWGQGTQVTVSS | low polyreactivity
17 | QVQLVESGGGLVQAGGSLRLSCAASGLTFYRNAMGWYTQAPGKERELVATISSSGGSTYYADSVKGRFTISRDNEKNTVYLQMNSLKPEDTAVYYCNARYYSYGPGKTVRYRTGYYGYWGQGTQVTVSS | high polyreactivity
18 | QVHLVESGGGLVQAGGSLRLSCAASGNTFYAYARGWYRQAPGKERELVAAIARAGNTYYADSVKGRFTISRDNAKNTVYLQMNSLKPEDTAVYYCNADDWWYGDNYWGQGTEVTVSS | high polyreactivity
19 | QVQLVESGGGLVQAGGSLRLSCAASGRTFRVYAMGWYRQAPGKEREFVAAITDSGGRTYYADSVKGRFTISRDNAKNTVYLQMNSLKPEDTAVYYCNAYQYYERYDTYLFRYDYWGQGTQVTVSS | low polyreactivity
20 | QVQLVESGGGLVQAGGSLRLSCAASGSTFWGNAMGWYRQAPGKERELVAAISSRGGSTYYADSVKGRFTISRDNAKNTVYLQMNSLKPEDTAVYYCNTLQSSHGSSQYDSWGQGTQVTVSS | low polyreactivity
21 | QVQLVESGGRLVQAGGSLRLSCAASVITFLGNAMGWYRQAPGKERELVAAISASGGRTYYADSVKGRFTISRDNAKNTVYLLMNSLKPEDTAVYYCAAASKPWYYYWGQGTQVTVSS | high polyreactivity
22 | QVQLVESGGGLVQAGGSLRLSCAASGRIFGTYAMGWYRQAPGKERELFAAITLSDGSTYYADSVKGRFTISRDNAKNTVYLEMNTLKPEDTAVYYCAAVVDRFHPGLYEYWGQGTQVTVSS | low polyreactivity

Row | Sequence | polyreactivity (PSR sort gate)
23 | QVQLVESGGGLVQAGGSLRISCAASGSTFVSYAMGWYRQAPGKERELVATISWRGGSTYYADSVKGRFTISRDNAKNRDYLHMNSLNPEDTAVYYCAADLWHSQYYYGYEYWGQGSQVTVSS | low polyreactivity
24 | QVQLVESGGGLVQAGGSLLISCAASGSIFTCYAMGWYRQAPGKERELVAASTRGGSTYADSEKGRFTISRDNAKNTVYLQRKSLIPDVTGVYYCNAVYGVYDFKYWGQGTQVSVSS | low polyreactivity
25 | QVQLVESGGGLVQAGGSLRLSCAASGSTFSDYPMGWYRQAPGKERELVAAISDSGSGTYYADSVKGRFTISRDNAKNTVYLQMNSLKPEDTAVYYCNTDPRFAMDWGQGTQVTVSS | low polyreactivity
26 | QVQLVESGGGLVQAGGSLSLSCAASGFTLGYYAMGWYRQAPGKERELVAAITSGGGTNYADSVKGRFTISRDNAKNTVYLQMNSLKPEDTAVYYCAARARWIYGMYSWGQGTQVTVSS | low polyreactivity
27 | QVQLVESGGGLVQAGGSLRLSCAASGRTFRRNAMGWYRQAPGKERELVAAISWRGVSTYYADSVKGRFTISRDNAKNTVYLQMNSLKPEDTAVYYCAVDFLYTRRDYWGQGTQVTVSS | high polyreactivity
28 | QVQHVESGGGLVQAGGSLRLSCAASGSTFTYNAMGWYRQAPGKEREKVASISSGTTTYYADSVKGRFTISRDNAKNTVYLQMNSLKPEDTAVYYCAVDSWSRVQGWLAHNYDYWGQGTLVTVSS | low polyreactivity
29 | QVQLVESGGGLVQAGGSLRLSCAASGGIFLFNAMGWYRQAPGKERELVAAITDGGSTYYADSVKGRFTISRDNAKNTVYLQMNSLIPDDTAVYYCNKDSSFWGYYIAQVNERDYWGQGTQVTVSS | low polyreactivity
30 | QVQLVESGGGLVQAGGSLRLSCAASGIIFYTYVMGWYRQAPGKEREFVAGISTSGGRTDYADSVKGRFTISRDNAKNTVYLQMNSLKPEDTAVYYCNADYWQWYSYWYDYWGQGTQVTVSS | high polyreactivity
31 | QVQLVESGGGLVQAGGSLRLSCAASGGIFTKNAMGWYRQAPGKERELVAGISRTGGNTYYADSVKGRFTISRDNAKNTVYLQMNSLKPEDTAVYYCHWAKWYRYGGYRSRYDYWGQGTQVTVSS | low polyreactivity
32 | QVQLQESGDGLVQAGGSLRLSSGASGTIVSDYGMGGYRQAPGKERELLAGISDGCNTNYTDSVKGRFTISRDNAHRVSADEQPETGGYLGVLLRGTERWLHFYVYWGQGTQVTVSS | high polyreactivity
33 | QVQLVESGGGLVQAGGSLRLSCAASGSIFYTYAMGWYRQAPGKERELVAAISSGGSTTYADSVKGRFTISRDNAKNTVYLQMKSLKPEDTAVYYCNTSYRKKKRYYYWGQGTQVTVSS | high polyreactivity
34 | QVQLVESGGGLVQAGGSLRLSCAASGRISSYYVMGWYRQAPGKERELVAAITGGDSTNYADSVKGRFTISRDNAKNTVYLQMNSLKPEDTAVYYCNAYYWYLDDYWGQGSQVTVSS | high polyreactivity
35 | QVQLVESGGGLVQAGGSLRLICAASGFIFRSYAMGWYRQAPGKEREFDAGINRRGGSTYYADSVKGRFTISRDNAKNSVYLQMNILKPEDTAVYYCAAVYYNRVDYWGQGTQVTVSS | high polyreactivity
36 | QVQLVASGGGLVQAGGSLRLSCAASGSTFTQNAMGWDRPAPGQEREVVAAISWSGARTYYADSVKGRFTISRHNAKNTVYLQMNSRKPEDPAVYDCNNYARKRGTTYDYWGHGTQVTVSS | high polyreactivity
37 | QVQLVESGGGLVQAGGSLRLSCAASGFTFGSYAMGWYRQAPGKERELVAVITRSGRTNYADSVKGRFTISRDNAKNTVYLQMNSLKPEDTEVYYCNADDVDDEVSPDLTEMDYWGQGTQVTVSS | low polyreactivity
38 | QVHLVESGGGLVQAGGSLRLSCAASGRTCRINAMGWYRQAPGKERELVAAITSGGRTNYADSVKGRFTISRDNAKNTVYLQMNSLKPEDTAVYYCAADTTHWYYLGYGYWGQGNQVTVSS | low polyreactivity
39 | QVQLVESGGGLVQAGGSLRLSCAASGSTFGWYTMGWYRQAPGKERELVAAINYSGGSTYYADSVKGRFTISRDNAKNTVYLQMNSLKPEDTAVYYCATDQSTYLYGYYYWGQGTQVTVSS | low polyreactivity
40 | QVQLVESGGGLVQAGGSLRLSCAASGITFYPYTMGWYRQAPGKERELVASISTSGTNYADSVKGRFTISRDNAKNTVYLQMNSLKPEDTAVYYCAADIWSYYRSTHVDSWGQGTQVTVSS | low polyreactivity
41 | QVQLVESGGGLVQAGGSLRLSCAASGYIFASYAMGWYRPAPGKERELVAAISIGGNTNYADSVKGRFTISRDNAKNTVYLQMNSLKPEDTAVYYCAAKTPRYRYGYWRQGTQVTVSS | low polyreactivity
42 | QVQLVESGGGLVQAGGSLRLSCPASGFNFPAYTMGSYRQAPGKERELVAAITSSGGNTYYADSVKGRFTISRDNAKNTVYFQMNSLKPEDTAVYYCATVSVRWPSNDHVRYDYWGQGTQVTVSS | low polyreactivity
43 | QVQLVESGGGLVQAGGSLRLSCAASGSTLATNAMGWYRQAPGKERELVAYADSVKGRFTISRDNAKNTVYLQMNSLKPEDTAVYYCNVEAPGRAQYGYPQGDYWGQGTQVTVSS | low polyreactivity

Source: the nanobody polyreactivity screen of Harvey et al. (2022)
